From paper PMC5017680, “treA Codifies for a Trehalase with Involvement in Xanthomonas citri subsp. citri Pathogenicity” (PLoS ONE, 2016)

Tested on: OC[C@H]1O[C@H](O[C@H]2O[C@H](CO)[C@@H](O)[C@H](O)[C@H]2O)[C@H](O)[C@@H](O)[C@@H]1O
Test: purified protein
Conditions: 25 °C, Glucose Liquiform kit solution, 0.03125-4 mM trehalose

## Xcc TreA (recombinant Xcc trehalase) (Xanthomonas citri subsp. citri 306)
  Km: 77 µM
